Measurements published in patent publication KR20160022857A (dated 2016).
Substitutions are numbered along the chain they refer to.

Columns and labels:
[1] = molecular target: T1, HER2-ECD-His 단백질 (human, UniProt P04626 23-652); test: SPR (Biacore 3000); HER2-ECD-His amine-coupled on CM5; periplasmic extract as analyte
T1 construct: extracellular domain; Origin and limits of the construct are not described; not shown: His tag

[2] = molecular target: T1, HER2-ECD-His 단백질; test: SPR; IgG captured on goat anti-human IgG; HER2-ECD-His as analyte

B1: M1-L-A1-3-1C3 (hz1E11-3), periplasmic extract (antibody, V domains shown)
VH: EVQLVESGGGLVQPGGSLRLSCAASGFTFSSYTMSWVRQAPGKGLEWVAYISNGGGSTYYPDTVKGRFTISRDNAKNSLYLQMNSLRAEDTAVYYCARHLGGTASFDYWGQGTLVTVSS
VL: DIQMTQSPSSLSASVGDRVTITCLASQTIGTWLAWYQQKPGKAPKLLIYVATSLADGVPSRFSGSGSGTDFTLTISSLQPEDFATYYCDQMYSTPWTFGQGTKVEIK
notes: Clone as expressed in bacteria, periplasmic extract; LCDR3 DQMYSTPWT
koff 감소 정도 (Fold) vs hz1E11 [1]: 7.4 fold

B2: M1-LH-A3-3-1A6 (antibody, V domains shown)
VH: B1 VH with H99N, L100Y
VL: B1 VL with D89Q, M91L, Y92V, S93R
koff 감소 정도 (Fold) vs hz1E11 [1]: 5.8 fold

B3: M3-LH-A1-2-2F4 (antibody, V domains shown)
VH: B1 VH with H99N
VL: B1 VL with D89Q, M91L, Y92V, S93R, T94I
koff 감소 정도 (Fold) vs hz1E11 [1]: 3.2 fold

B4: M3-LH-A3-3-2A5 (antibody, V domains shown)
VH: B1 VH with L100W
VL: B1 VL with D89Q, Y92F
koff 감소 정도 (Fold) vs hz1E11 [1]: 3.6 fold

B5: M3-LH-A1-1-1H1 (antibody, V domains shown)
VH: B1 VH with H99N, L100Y
VL: B1 VL with D89Q, M91N, Y92F, S93I, T94A
koff 감소 정도 (Fold) vs hz1E11 [1]: 0.7 fold

B6: hz1E11-133 (IgG) (antibody, V domains shown)
VH: B1 VH
VL: B1 VL with D89Q, M91N, Y92A, S93Y, T94A
notes: heavy variable region same as hz1E11
fold decrease of koff (kd) vs hz1E11 [2]: 8.4 fold
fold improvement of affinity (KD) vs hz1E11 [2]: 15 fold

B7: hz1E11-154 (IgG) (antibody, V domains shown)
VH: B1 VH
VL: B1 VL with D89Q, M91T, Y92A, S93F, T94S
notes: as for B6
fold decrease of koff (kd) vs hz1E11 [2]: 8.4 fold
fold improvement of affinity (KD) vs hz1E11 [2]: 20 fold

B8: M3-L-A1-3-1A12 (hz1E11-133), periplasmic extract (antibody, V domains shown)
VH: B1 VH
VL: B1 VL with D89Q, M91N, Y92A, S93Y, T94A
notes: Clone as expressed in bacteria (IPTG), periplasmic extract; LCDR3 QQNAYAPWT
koff 감소 정도 (Fold) vs hz1E11 [1]: 30.4 fold

B9: M3-LH-A3-3-2F1 (antibody, V domains shown)
VH: B1 VH
VL: B1 VL with D89Q, M91N, Y92A, S93Y, T94N
notes: substitutions derived from the printed CDR3
koff 감소 정도 (Fold) vs hz1E11 [1]: 4.4 fold

B10: M3-L-A1-3-1F11 (hz1E11-154), periplasmic extract (antibody, V domains shown)
VH: B1 VH
VL: B1 VL with D89Q, M91T, Y92A, S93F, T94S
notes: Clone as expressed in bacteria, periplasmic extract; LCDR3 QQTAFSPWT
koff 감소 정도 (Fold) vs hz1E11 [1]: 9.7 fold

B11: M3-L-A1-3-2C2 (antibody, V domains shown)
VH: B1 VH
VL: B1 VL with D89Q, M91L, Y92G, S93F, T94I
notes: hz1E11 variant, periplasmic extract; substitutions derived from the printed CDR3 against hz1E11
koff 감소 정도 (Fold) vs hz1E11 [1]: 2 fold

B12: M3-L-A3-4-2E8 (antibody, V domains shown)
VH: B1 VH
VL: B1 VL with D89Q, M91I, Y92A, S93Y, T94V
notes: as for B11
koff 감소 정도 (Fold) vs hz1E11 [1]: 5.9 fold
